Tested on: Escherichia coli TOP10
Assay: shrunken log2 fold change of peptide-encoding DNA abundance (4.5 h post-induction vs induction); higher = less antimicrobial activity (less host growth inhibition)
Details: time post-induction: 4.5 h; library: site-saturation at positions 5, 18, 19, 20
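Note: peptides expressed intracellularly from a pBAD plasmid library in pooled LB shake-flask culture, induced with 0.3% L-arabinose, DNA abundance read by NGS, three biological replicates, DESeq2 with apeglm shrinkage.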

Row | Sequence | shrunken log2 fold change
1 | RRIRTRPPRLPRPRPRPLDMPRP | -0.247
2 | RRIRFRPPRLPRPRPRPDGKPRP | -0.3
3 | RRIRIRPPRLPRPRPRPIGYPRP | -0.085
4 | RRIRTRPPRLPRPRPRPQHGPRP | -0.187
5 | RRIRKRPPRLPRPRPRPPKYPRP | -0.0749
6 | RRIRKRPPRLPRPRPRPMKNPRP | 0.212
7 | RRIRRRPPRLPRPRPRPKLVPRP | 0.485
8 | RRIRTRPPRLPRPRPRPFEQPRP | -0.225
9 | RRIRYRPPRLPRPRPRPLTGPRP | -0.023
10 | RRIRLRPPRLPRPRPRPTDWPRP | 0.947
11 | RRIRPRPPRLPRPRPRPHELPRP | -0.0456
12 | RRIRYRPPRLPRPRPRPDYLPRP | -1.57
13 | RRIRSRPPRLPRPRPRPYVLPRP | -0.277
14 | RRIRWRPPRLPRPRPRPMNIPRP | -0.541
15 | RRIRCRPPRLPRPRPRPYSAPRP | -0.752
16 | RRIRPRPPRLPRPRPRPRWLPRP | 0.299
17 | RRIRRRPPRLPRPRPRPQHYPRP | -0.128
18 | RRIRTRPPRLPRPRPRPRTAPRP | 2.87
19 | RRIRPRPPRLPRPRPRPPWLPRP | 0.57
20 | RRIRNRPPRLPRPRPRPYPWPRP | -0.0963
21 | RRIRWRPPRLPRPRPRPEIVPRP | -0.00443
22 | RRIRYRPPRLPRPRPRPWMSPRP | -0.0725
23 | RRIRMRPPRLPRPRPRPDTTPRP | 0.536
24 | RRIRTRPPRLPRPRPRPNSNPRP | -0.716
25 | RRIRLRPPRLPRPRPRPWQQPRP | 0.00911

Row | Sequence | shrunken log2 fold change
26 | RRIRWRPPRLPRPRPRPPQWPRP | 0.179
27 | RRIRRRPPRLPRPRPRPNPSPRP | 0.215
28 | RRIRWRPPRLPRPRPRPVYRPRP | -0.0858
29 | RRIRRRPPRLPRPRPRPEKCPRP | -0.00259
30 | RRIRFRPPRLPRPRPRPIAYPRP | -0.156
31 | RRIRHRPPRLPRPRPRPHTLPRP | -0.247
32 | RRIRKRPPRLPRPRPRPTDTPRP | 0.261
33 | RRIRTRPPRLPRPRPRPGRWPRP | 0.393
34 | RRIRTRPPRLPRPRPRPIKYPRP | 4.24
35 | RRIRTRPPRLPRPRPRPQMNPRP | -0.345
36 | RRIRIRPPRLPRPRPRPSANPRP | -0.15
37 | RRIRMRPPRLPRPRPRPGIPPRP | 0.726
38 | RRIRYRPPRLPRPRPRPAEIPRP | -0.148
39 | RRIRGRPPRLPRPRPRPMFPPRP | 0.193
40 | RRIRWRPPRLPRPRPRPLPRPRP | 0.534
41 | RRIRMRPPRLPRPRPRPRNAPRP | 2.06
42 | RRIRQRPPRLPRPRPRPKWPPRP | 0.166
43 | RRIRHRPPRLPRPRPRPYKFPRP | -0.0481
44 | RRIRKRPPRLPRPRPRPHVAPRP | 0.0884
45 | RRIRFRPPRLPRPRPRPWPHPRP | -0.132
46 | RRIRCRPPRLPRPRPRPNQDPRP | -0.348
47 | RRIRFRPPRLPRPRPRPVDPPRP | -0.228
48 | RRIRTRPPRLPRPRPRPIWEPRP | -0.178
49 | RRIRQRPPRLPRPRPRPCNYPRP | 0.00177
50 | RRIRTRPPRLPRPRPRPWLHPRP | -0.166

Row | Sequence | shrunken log2 fold change
51 | RRIRRRPPRLPRPRPRPYAYPRP | -0.189
52 | RRIRRRPPRLPRPRPRPHEHPRP | -0.153
53 | RRIRVRPPRLPRPRPRPNTAPRP | -0.147
54 | RRIRSRPPRLPRPRPRPKNNPRP | -0.273
55 | RRIRTRPPRLPRPRPRPNRLPRP | 0.0657
56 | RRIRYRPPRLPRPRPRPFNTPRP | -0.468
57 | RRIRLRPPRLPRPRPRPCKLPRP | -0.114
58 | RRIRDRPPRLPRPRPRPDERPRP | 0.0336
59 | RRIRARPPRLPRPRPRPECEPRP | 0.0705
60 | RRIRERPPRLPRPRPRPDNTPRP | -0.489
61 | RRIRYRPPRLPRPRPRPLSMPRP | -0.036
62 | RRIRRRPPRLPRPRPRPCGIPRP | 0.506
63 | RRIRARPPRLPRPRPRPEWVPRP | 0.775
64 | RRIRRRPPRLPRPRPRPLVSPRP | 0.153
65 | RRIRFRPPRLPRPRPRPAYIPRP | -0.601
66 | RRIRARPPRLPRPRPRPNHNPRP | -0.542
67 | RRIRCRPPRLPRPRPRPTVIPRP | -0.907
68 | RRIRVRPPRLPRPRPRPQSYPRP | -0.461
69 | RRIRMRPPRLPRPRPRPDKQPRP | 0.0746
70 | RRIRRRPPRLPRPRPRPFRTPRP | -0.0909
71 | RRIRMRPPRLPRPRPRPMHCPRP | 0.0428
72 | RRIRGRPPRLPRPRPRPDSPPRP | 0.136
73 | RRIRRRPPRLPRPRPRPYSMPRP | -1.39
74 | RRIRCRPPRLPRPRPRPWNPPRP | 0.228
75 | RRIRYRPPRLPRPRPRPCLHPRP | -0.633

Row | Sequence | shrunken log2 fold change
76 | RRIRTRPPRLPRPRPRPCTMPRP | -0.0721
77 | RRIRARPPRLPRPRPRPPQFPRP | 0.953
78 | RRIRTRPPRLPRPRPRPLCVPRP | -0.357
79 | RRIRSRPPRLPRPRPRPNYGPRP | -0.0945
80 | RRIRHRPPRLPRPRPRPQAMPRP | -0.00822
81 | RRIRTRPPRLPRPRPRPKNPPRP | -0.0748
82 | RRIRFRPPRLPRPRPRPEYNPRP | -0.113
83 | RRIRNRPPRLPRPRPRPCMRPRP | 0.0891
84 | RRIRNRPPRLPRPRPRPKWQPRP | 0.182
85 | RRIRGRPPRLPRPRPRPSVAPRP | 1.37
86 | RRIRERPPRLPRPRPRPGIVPRP | -0.113
87 | RRIRQRPPRLPRPRPRPLVWPRP | 0.152
88 | RRIRARPPRLPRPRPRPLGPPRP | 0.337
89 | RRIRWRPPRLPRPRPRPTTCPRP | -0.00726
90 | RRIRRRPPRLPRPRPRPFYRPRP | -0.0117
91 | RRIRNRPPRLPRPRPRPTHWPRP | 0.661
92 | RRIRGRPPRLPRPRPRPPEQPRP | 1.29
93 | RRIRERPPRLPRPRPRPTEAPRP | 0.0834
94 | RRIRRRPPRLPRPRPRPSAWPRP | 0.462
95 | RRIRMRPPRLPRPRPRPCCWPRP | 0.787
96 | RRIRHRPPRLPRPRPRPAKQPRP | 0.307
97 | RRIRDRPPRLPRPRPRPQNNPRP | -0.653
98 | RRIRPRPPRLPRPRPRPIWIPRP | -0.308
99 | RRIRVRPPRLPRPRPRPAHQPRP | 0.317
100 | RRIRDRPPRLPRPRPRPFYHPRP | -0.124

Row | Sequence | shrunken log2 fold change
101 | RRIRPRPPRLPRPRPRPYVVPRP | -0.307
102 | RRIRTRPPRLPRPRPRPICGPRP | 0.0749
103 | RRIRRRPPRLPRPRPRPDQCPRP | -0.00402
104 | RRIRVRPPRLPRPRPRPKMHPRP | -0.198
105 | RRIRNRPPRLPRPRPRPFVEPRP | -0.12
106 | RRIRERPPRLPRPRPRPTKTPRP | -0.0835
107 | RRIRTRPPRLPRPRPRPLRGPRP | 0.897
108 | RRIRLRPPRLPRPRPRPIMGPRP | -0.0219
109 | RRIRFRPPRLPRPRPRPLVGPRP | -0.0413
110 | RRIRCRPPRLPRPRPRPYFKPRP | -0.931
111 | RRIRARPPRLPRPRPRPLRGPRP | 0.954
112 | RRIRMRPPRLPRPRPRPGTTPRP | 1.24
113 | RRIRGRPPRLPRPRPRPRAEPRP | 1.01
114 | RRIRNRPPRLPRPRPRPRVFPRP | -0.036
115 | RRIRCRPPRLPRPRPRPCHDPRP | -0.69
116 | RRIRVRPPRLPRPRPRPWGFPRP | 0.0189
117 | RRIRNRPPRLPRPRPRPSWVPRP | -0.289
118 | RRIRQRPPRLPRPRPRPHKLPRP | -0.544
119 | RRIRCRPPRLPRPRPRPDMVPRP | -0.184
120 | RRIRSRPPRLPRPRPRPKLKPRP | 0.149
121 | RRIRYRPPRLPRPRPRPFAKPRP | -0.623
122 | RRIRARPPRLPRPRPRPSCYPRP | 0.0075
123 | RRIRVRPPRLPRPRPRPMCPPRP | 0.0857
124 | RRIRMRPPRLPRPRPRPFTKPRP | -0.319
125 | RRIRSRPPRLPRPRPRPIMYPRP | -0.42

Row | Sequence | shrunken log2 fold change
126 | RRIRTRPPRLPRPRPRPKTFPRP | -0.00423
127 | RRIRERPPRLPRPRPRPNYFPRP | -0.57
128 | RRIRPRPPRLPRPRPRPDTLPRP | -0.284
129 | RRIRTRPPRLPRPRPRPTTMPRP | -0.109
130 | RRIRYRPPRLPRPRPRPNHEPRP | -0.657
131 | RRIRCRPPRLPRPRPRPSIEPRP | -0.123
132 | RRIRFRPPRLPRPRPRPEQMPRP | 0.19
133 | RRIRDRPPRLPRPRPRPIPLPRP | -0.0193
134 | RRIRWRPPRLPRPRPRPDNYPRP | -0.00844
135 | RRIRPRPPRLPRPRPRPQFEPRP | 0.0184
136 | RRIRLRPPRLPRPRPRPNCCPRP | -0.0382
137 | RRIRSRPPRLPRPRPRPHRDPRP | -0.141
138 | RRIRNRPPRLPRPRPRPFGRPRP | -0.0535
139 | RRIRGRPPRLPRPRPRPYLQPRP | -0.182
140 | RRIRPRPPRLPRPRPRPDIRPRP | -0.0755
141 | RRIRIRPPRLPRPRPRPCWEPRP | -0.0815
142 | RRIRSRPPRLPRPRPRPSEHPRP | -0.579
143 | RRIRPRPPRLPRPRPRPQMVPRP | -0.491
144 | RRIRCRPPRLPRPRPRPSWWPRP | 0.205
145 | RRIRKRPPRLPRPRPRPAGIPRP | 0.252
146 | RRIRDRPPRLPRPRPRPAHSPRP | -0.143
147 | RRIRERPPRLPRPRPRPPECPRP | 0.0263
148 | RRIRERPPRLPRPRPRPNNLPRP | -1.05
149 | RRIRCRPPRLPRPRPRPAQQPRP | 0.342
150 | RRIRMRPPRLPRPRPRPHKQPRP | 0.0796

Reference: the supplement of paper PMC9112550, “Optimization of the antimicrobial peptide Bac7 by deep mutational scanning” (BMC Biology, 2022)
